From patent US8227408B2, “Leptin as an anti-amyloidogenic biologic and methods for delaying the onset and reducing Alzheimer's disease-like pathology” (Neurotez, Inc., priority 2005, dated 2012)

System: SY5Y cells
Test: Aβ production by SY5Y cells
Format: cell-based, human
Conditions: total Aβ in conditioned media, 5 h; concentration (TOFA 200 μM, cerulenin 200 μM, etomoxir 40 μM, peptide YY (3-36) 25 μM, CNTF 25 μM, leptin 400 ng/ml); mean ± SEM; NS = non-significant
Source text: Cell cultures, Treatments, Antibodies and Immunoassays. SY5Y cells (human neuroblastoma) were maintained in culture as described (Johnsingh et al., FEBS Lett. 465:53-8 (2000)). Primary neural cultures were obtained from ε16 rat embryonic cortex, as described (Shimoda et al., 1992. Brain Res. 586:319-31 (1992)). These were either grown as mixed cultures (Johnsingh et al., FEBS Lett. 465:53-8 (2000)) or grown under conditions that favor the isolation and proliferation of astrocytes (Takeshima et al., J Neurosci. 14:4769-79 (1994)).
SY5Y and hyg-sa134-Neuro2a cells were treated at 80% confluency (see below). Primary neural cultures from mouse embryos were allowed to grow for 6-12 days following plating and prior to viral infection and treatments.
About 100 ng/ml or about 400 ng/ml leptin (Harbor-UCLA, CA), was added in cell culture medium for 2 or 5 h. Cells were approximately 80% confluent at the time of treatment. Peptide YY (3-36) (Phoenix Pharmaceuticals, Inc., CA), and CNTF (Sigma-Aldrich, Mo.) were added at about 25 μM or 150 μM for the same incubation periods. TOFA, etomoxir (Research Biochemicals International, MA) and cerulenin (Sigma-Aldrich, Mo.) were used as described below.
For the determination of Aβ peptide several methodologies also were used. SY5Y cells in culture were metabolically labeled with ^35S-[Met] as described (Figueiredo-Pereira et al. J Neurochem. 72:1417-22 (1999)), followed by immunoprecipitation, resolution of the immunoprecipitates on SDS-PAGE, autoradiography, and densitometric analysis of the autoradiogram. Neuro2a cells were stably transfected with hyg-sa134 (K. Sambamurti, S. Carolina Medical Center, SC) and Aβ40 (SEQ ID NO: 4) plus Aβ42 (SEQ ID NO: 5) plus Aβ43 (SEQ ID NO: 6) (Total Aβ) in the medium then was quantified by sandwich ELISAs developed with 4G8 and 6 ε10 monoclonal antibodies (Signet, Mass.) as described (Figueiredo-Pereira et al., J Neurochem. 72:1417-22 (1999)). Commercially available ELISA kits (KMI Diagnostics, MN) were used for the separate determination of Aβ40 (SEQ ID NO:4) and Aβ42/43 (SEQ ID NO:5/SEQ ID NO:6) in formic acid extracts of mice brains. Flotillin was detected using monoclonal anti-flotillin-1 antibodies (BD Biosciences, CA). Actin was detected using monoclonal anti-actin antibodies (Research Diagnostics, Inc, NJ).
Human (SYSY) or mouse neuroblastoma cell-lines (Neuro2a) commonly are used to study amyloid β metabolism in vitro. Neuro2a cells are stably transfected with hyg-sa134 (SEQ ID NO: 11), a plasmid driving the expression of a recombinant fusion protein containing the human C-terminal fragment of APP of about 134 amino acids, CAPP134 (SEQ ID NO: 10). Here, 5Y5Y or Neuro2a cultures were treated for 2 or 5 h with about 100 ng/ml or about 400 ng/ml leptin (FIG. 4a, 4b). Similarly, primary neurons from embryonic rat brain, infected with an adenovirus to direct the expression of CAPP134 (SEQ ID NO:10) also were treated according to the same regimen.

B1: Leptin: peptide hormone controlling adaptive metabolic mechanisms to energy availability; leptin (Harbor-UCLA) in vitro, recombinant murine leptin in mice (protein, UniProt P41160 22-167, looked up)
Leptin: VPIQKVQDDTKTLIKTIVTRINDISHTQSVSAKQRVTGLDFIPGLHPILSLSKMDQTLAVYQQVLTSLPSQNVLQIANDLENLRDLLHLLAFSKSCSLPQTSGLQKPESLDGVLEASLYSTEVVALSRLQGSLQDILQQLDVSPEC
- SY5Y Aβ (% control): 38 ± 7 % control
